The values that follow come from PMC6402988.

This assay has as its target rVSV-EBOV GPΔβ17-β18 (Zaire ebolavirus (EBOV)) (UniProt Q05320).

Regarding ADI-15946 IgG (antibody), the neutralization efficiency of rVSV-EBOV GPΔβ17-β18 compared to GPWT was found to be 10 fold.
